Assay results as given in the DeepSol protein solubility set.

Test: soluble on expression in E. coli; label from the status in PepcDB or PDB records

Soluble on expression in E. coli, not soluble:
MGSDKIHHHHHHMSLPAQLRVLEVVQSLEKGGRTTRFTDTVAGLRAQKIFTVPLCISKPESWVSIPDLEVLHKTAGINWKLVFQIRKKIIKNNINLIHAHCEFSQLYASIAGVTCGIKTVATFHRSDLSKYQPNMVNKLIKLFASHFVAVSHDRLSLLTNNLKLPLNKCHVVHGGSVIEKKPTVTSINKARADLGIPLDQLMLLSIGHLGEIKGHQDTLVALSKFTKTMPALHLYIAGDGAAQEKQKLTELVNKLQINENVTFLGQINNAFSWLEACDIFIQPSVEEAFGLVFVEAGAKAKPVIATTVGGIKEIIVSKETGLLVLPSSPKAVEHALAILINSPPLRQQYGENGYKRITEHFSLTNMVNKYTDIFNQAVN
MGSDKIHHHHHHMSNTAQLITPSPIGLIADITELFEKTFAHFSRTLKVNADDIPEETMSFHTWSSIDNFPTLIQKYRDEYYGDNDLKPNDKALYSLWSQWYFGLIIPPMMLLLIEYPQTIDTHHKNFKVLFHHSGRPEVVYYQLKWQSQDPGTLLERYYLLLNHHVIPIAEKIESYQGINGRLLWNNIGYLMFWYLGEFKGRLGDDLYQSIINGLFMELSLPNGQDNPLYRTVMLRNGTLQRRSCCQRNKLPGVRSCHDCPLEKPPLNLIS
MGSDKIHHHHHHMSPHDAKSVIRRFVKEVLNDKNLAVIDEICPPDYVELDPLPGQGPGAAGLKAFLGESFFKAFPDLVWVNEEMVAEGEYVMARSTWTGTHRGEFLGIPPTHRAVKVAAWTIDHVVDGKFVDSRILVDALSLLQQLGALPAWPPPPKTFQAMVDAAYRSVPTIKAADLHRRLKREPDLLIIDVRDAAEVAQTGAIPGAINLSYGTLTYAADHTAPEDWRDPRLADHARPIVTTCGLGPLGALGGGLLHEMGFTNVQILEGGVQAWIDAGLPVVKPGDQ
MGSDKIHHHHHHMSPKVFVSHASEDKDRFVLQFAERLRQKGIDAWLDKWEMLPGDSLVDKIFEEGIKEAKAVIVVLSKFSVEKPWVREELNAAFVKRINNGSKLIPIVIDDCEVPEALKSTLWEPIADLSAYDKSFDRIVASIYGANDRPPIGPQPEYVQSFVQAIGNLNNIDSLVLRFSCEEVLKTGNAFVNPERVFLKDDKPILPEDELKDSLEILDGGGYIKLMRTLGGGFFPYQITTYGFDVYANASIPDYQGKIAAVVSAIVNEKLMSNAKIQERLKENKIIVDHILNVLENKGHIKQSKMIGGLSEIFNVSPSLKRALSGG
MGSDKIHHHHHHMSPNNFDTDVCIVGGGPTGTLLAVLLGQKGHRVTILEKWPTFYERPRAVTFDHEIARILGYIGIDSENDEAIDYHSDSYDWKNAAGETLLEVDWTSMTDSGWRTRYWFYQPELEKRLRDLALTMDFVDIRCGFTAVGLSQDENSAIIHGIVTDTPENIPADAQREDIRAKYVIGADGANSFVRNSLGLEMNDLGYFFDWLILDLKPTQDIDYGTDHWQLCDPKRPTTIVPGGPGRRRWEFMALPGEDLKELASEESAWNLLEPWDVTPGKAILERSAVYRFQARWAQEWRSGRALIAGDAAHLMPPFAGEGMCAGLRDSLALAWRLDLVLSGKSDDALLDTYGEERREHVHYYIDFSMDLGNVICITDEDEARLRDERMIKELEAQDGVPVNTDVAHLGPGIWDKDSSHGGELAKQGIVEYQGRKARFDDAVGRGWAVLGLNTDPREVLDEDSLVALDAIGAIVESVGDATSAVLDVEGLYTRWLKEAGATFIITRPDFYVYSTAVDAEQLQTQIKQLSDLLHLNSVVGA
MGSDKIHHHHHHMSPRPKQLSLELGSPPPSTFDNFVVASNREAVQRLHDLPSAVAQERAIDRLFYLWGENGCGRTHLLHAVCEATPQTGINCRYLSPHHPLSDFLFDPSCQLYTVDDVELLDEARQIAVFSLYNEVRAHVRTALVVAGGMAPRAMPVREDLRTRLGWGLVYQVQPLSDEDKMSAVLQAARERGLQLSPEITHWLVTRHYRDMPSLMALLDALDTYSLERKRPVTLPLLREMFAEFRE
MGSDKIHHHHHHMSQDDHSRDSAGLTYVYPVVSRRAGGVSIGINLNPNNACNWRCIYCQVPDLKRGTAPVIDLVRLEQELRDFLHELVYGNFMQEKVPPETRVIKDIALSGNGEPTSAREFEQIIEIIGRVKADFPLPEELKLVLITNGSLINRMYVQKGLHLMAGLNGEVWFKLDSVTQTGRLRINNTRASLQRMRDNLQTAASLCPTWLQTCVFKLKGVHPDTHETDAYIGFIRTLLQEGTQIRGVLLYTLARPALQPEAPDLSKADPDWIKTFADKIRALGIPVRTAF
MGSDKIHHHHHHMSQYSVTSSSVVKEKASELGFHKVGIAAVDSIDATEAQRLQAWIELGYHADMEWMANPKRQDIRLVMPEARSLVCVALNYYTPHQRPEGEEYAKISRYGWGRDYHKVMHKKLKQLSTWLESLDESVRVRYYADTGPVQDKVLAQLAGIGWIAKNGNVITREYGSWVFLGEVLTNLELESDRPHTEHCGSCTRCLQACPTSAITQPFIVDANRCIAYHTIENRDEKLPQTLTSHLQGWVAGCDICQDVCPWNQRFASTTDIPEFQPYPGNIAPKLLELAQISDQEWNKRFPASALRRIKPEMLRRNALANLDASRQIMTPKVIIFDFDGTIADTVDALVSIANRLAVDFGYRHISPEQLSLLKNLTSREIIKYSGVSLFKIPFLVKKVKGELKNKIPELKPIPGIKEALIELQNKGYKLGIITSNSKDNVTQFLTINDLNHLFDFIYSGITIFGKTTIINNVLRQNQLQPQEVIYVGDETRDIEASKKANIQVIAVAWGFNSSEVLAKQNPDYLIQQPSELLEVMNGY
MGSDKIHHHHHHMSRAERLIELMITINAKRSFTAGELAEEFSVSKRTILRDLQVLESIGFPLYSKVGAAGGYHVLKERILPPIAFSESEVKSIFFAYQSLEYYNDLPFEQETISVLKKFLNCIPNDIQYNIENIRRKFVFWTPDRHCSTPLLKELFNIVMNEFTIKIEYSSKQKNSVRTIVPIGLYAMNGLWYCPAYCIKSESIKEFRVDRIVKILSIENLSSKKYKVLSSIHDYLKNMEVGTDYHIKINLTDEGVKRCETEFLLARGLKILSKGGYIDMYIPKSTLNWVAEYFLTFGKNATIIEPIELKHLIKSKVLELYNHHCI
MGSDKIHHHHHHMSRSDARICAIHQPNFFPWLGYFDKIVRADIFVLLDDVQYQKTGGNWTNRVQMMIGQGPKWVTAPVDRSYSGVRQIREIRFSPVEREWREKLCSTITASYGRAAYFREVYPFIEPIIMNDSDFLSDYNSHAIAALCDYLEIESSKLVRSSQFNLQNNATDLLIDITKAVGAVRYLCGGGAQGYQEDEKFPRHGIQLIYQNFCHPIYTQANDAPFQPGLSIVDALMHCGRRGVIELLNRK
MGSDKIHHHHHHMSRVGFTTSIPVEVILAAGKTPVDLNNVFINSLSPQSMVDLAEEEGYPRNCCGWIKGLYATSLNYDMEALIAVMHGDCSNTQALMETLQLRNKKIIPFAFPFDRERSQLEAQVDKLMQFFEVDMEEVLKARARLEKIRSLCRELDRMTWRDNLVTGQENHYYLLCSSDFNGNPAEFEAELHSFVEEAGKRRPIQEEVRLAYIGVPPIFTDLHQLLELMGARVVFNEVQRQFSMPVESSDIIEQYLHYTYPYGAFARLEDIEEQLAVRDVQGVIHYTQTFCFRQIEDLIFRERLKIPFLTLEGDRPGKVDARSRMRLESFVSMLKK
MGSDKIHHHHHHMSSDPTSGAAITVEGLKKVFRIYERPRDRILQLILPGKRKFYREFQALDDVSFTVQKGQAVGIIGRNGSGKSTLLQMICGILHPTAGKVSCSGRVAALLELGAGFNPDFTGRENVYMNATLLGLTTAAVDERMDDILAFAEIGDFIDHPVKTYSSGMFVRLAFAVMAHVDAEILIIDEALAVGDAAFGQKCMRFLRRFRETGTILFVSHDTAAVIGLCDRAVWLDRGKMIIEGDAKTVCEAYYGHLFGGTVETPPEKTVEAITPSPAPEGPRPKVRAEDWVDGRREWINHSSLRNDIEVFTFDPSGTDFGAGGAEIEDVRLTDDDGHPYAWIVGGEPTRLRVTVRVRDELRSPIIGFFVKDRLGQTLFGDNTFMNEKKLSKPALPGQILEANFRFPMPILPPGTYSIAVAVADGTQTDHVQHHWLHDAVMVKSHVSHATAGLVGIPMFEVRFECHDPVASPSSSMDKVGIVD
MGSDKIHHHHHHMSSEIVIRVKNLSKCFNIYDQPRDRLKQAILPRLQRLFGRPQKSYHKEFWALRNADFEIRRGETVGIIGRNGSGKSTLLQLLCGTLTPTHGDIEVTGKVAALLELGAGFNPEFTGRENVFLSGSFYGLTREQVQERFDRIAAFADIGDHIEQPVKTYSSGMFVRLAFAVIAHVDADILVIDEALSVGDAVFTQKCMRFIRSFQEKGTLLFVSHDMQSVVNLCRNAIWLNAGETRMKGTSKNVSEAYLKYTLQEVYGEEAILLSAAPKESTLDAPMFEEAGPPMLDYEAVASVSSNLFDAKGWKTGDAEIEAVQLESLTGENDGILRGGELVRMVVRARAHQPLERPVIGFMVRDRLGQNLFGENTLSLTALDQARVAAGQMFEGEFVFRLPMLPDGQYSVTASVADGDLHNNVQHHLLHDALIINVASSKVRWGLVGVPFERVTLNCI
MGSDKIHHHHHHMSSIIENLQLAAQQVHLINLYQANSEVVYTGYIDRLAPDGVVVNTYDDAGLQDGAVFMRYDVIDEVEMMSEDLDNMAFRLENATTEGLNSVPQPTVALDDQRPVLTQLVTQAQTDHQVVLLVLEDNENYLEGQVQQVTDQTITFKTFDKFNFKNNGQQEIPLAAIQILEFCGNELLLESAFVKTIHTHRATIKVSEFDDVDHTLNNALNEHQLIAIRSADGSDMFFVGFINALNADSVLLNLIDMTGQFGGYTLCRRSLIESVTTQSDYLQTMRGFIELNRQYELNVQPVLNDERLFDATTDLFDSILRQAATFNNLVHITTENPMLPAMTGYPGTLTNGHFIFYNVDDDNQINHVGTMIELDQVVELSFGYMDAYLLEKRLKSTGNL
MGSDKIHHHHHHMSSPSLGTEQVFPQQALLDPVLLRAFVAVADSGSFTRAAAATHLTQSTVSQQLKRLEQQLGCELLSRKGRYAMPTADGERLLGYARQILALMAEAGMTPAQPPLLRLAVAEDFAGTALMPILKKLITRFPSVKLEVQSGLSKPLYQAFQEGVVELALIKQRQGEHPAKACWPEALSWLAAADWQAVKAGEPVPLIAFPAGGLYRNEMAQLLDEAGIPWRLVYSSNSLEGVLCAVAAGMGVSLLPSRFIRAREHREITALPRATAMELALHLASSPGAELQWLADEIGAYCDRLSSGGSSVSCPNTSA
MGSDKIHHHHHHMSTIGSDLYNSLGLTTSSKVAKKEDALGQADFLKLMTEQLQHQDPLKPMENSAFLGQLAQFSTVQGIGDLNTKVGNFSDSMNSDQVLKGAALVGHNVLVPSAQVAIDATGSAKGVVAATSAGFVNFEITDANGTFVKQLSVPASAAGEVSFAWDGTDANGNRMAAGKYGITATQTDTAGAKSKLATYVDAPVDSVTIGSDGLYLNLTGLGTSPLANVLRVS
MGSDKIHHHHHHMSTNISWTDETINPIVGCSRISAGCQNCYASTAAASARLQQFPQYQKVKDWNGTVEFAESALLKPLSWKKPKRIFVCSMSDLFHENVPDQWRDRVFGIMAAAHWHIFQVLTKRPLNALKYFQNFNLAQRIKDAGNLVCKPELPLKNVWFGVTCENQEMADKRIPILLQIPAKVRFLSCEPLLEEIDLSEVFGLYEYEEGKFALKVGSRWESSPDWVIVGGESGKDARVCHIDWVRSLTRQCQAAEVPVFVKQLGSNCIESLPYIAGVPSTDYQFKTSDRKGGDISEFPEDLQVRKFPDIHKTR
